Publication PMC9807911, “RH5.1-CyRPA-Ripr antigen combination vaccine shows little improvement over RH5.1 in a preclinical setting” (Frontiers in Cellular and Infection Microbiology, 2022)

Target: CyRPA (D29-E362; S147A, T324A, T340A) (Plasmodium falciparum 3D7, UniProt Q8IFM8 29-362, S147A | T324A | T340A)
Test: gel electrophoresis
Conditions: both partners purified

B1: RH5.1 (E26-Q526; T40A, T216A, T286A, T299A) (natural protein)
chain: ENAIKKTKNQENNLALLPIKSTEEEKDDIKNGKDIKKEIDNDKENIKTNNAKDHSTYIKSYLNTNVNDGLKYLFIPSHNSFIKKYSVFNQINDGMLLNEKNDVKNNEDYKNVDYKNVNFLQYHFKELSNYNIANSIDILQEKEGHLDFVIIPHYTFLDYYKHLSYNSIYHKSSTYGKCIAVDAFIKKINEAYDKVKSKCNDIKNDLIATIKKLEHPYDINNKNDDSYRYDISEEIDDKSEETDDETEEVEDSIQDTDSNHAPSNKKKNDLMNRAFKKMMDEYNTKKKKLIKCIKNHENDFNKICMDMKNYGTNLFEQLSCYNNNFCNTNGIRYHYDEYIHKLILSVKSKNLNKDLSDMTNILQQSELLLTNLNKKMGSYIYIDTIKFIHKEMKHIFNRIEYHTKIINDKTKIIQDKIKLNIWRTFQKDELLKRILDMSNEYSLFITSDHLRQMLYNTFYSKEKHLNNIFHHLIYVLQMKFNDVPIKMEYFQTYKKNKPLTQ
binding result: binds
